Reference: patent US7897729

Biological target: FcγRIII (CD16) (human) (UniProt P08637)
Experiment: cell-based or functional assay

Sequence of FcγRIII (CD16) (human) (P08637 17-254): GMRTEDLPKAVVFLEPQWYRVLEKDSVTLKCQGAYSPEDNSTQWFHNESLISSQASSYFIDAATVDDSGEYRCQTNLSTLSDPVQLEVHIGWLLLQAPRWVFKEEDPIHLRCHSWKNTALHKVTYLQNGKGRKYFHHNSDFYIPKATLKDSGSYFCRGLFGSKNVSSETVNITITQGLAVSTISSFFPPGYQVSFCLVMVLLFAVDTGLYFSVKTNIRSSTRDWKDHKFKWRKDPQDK

## heat aggregated IgG (AIG)
  IFN-γ secretion from PBMC, aggregated IgG (40 µg/ml) + IL-2: 13 ng/mL
  TNF-α secretion from PBMC, aggregated IgG (40 µg/ml) + IL-2: 2.46 ng/mL
  fold induction of PBMC proliferation over IL-2, 125 µg/mL of AIG: 16 fold
  proliferative response of PBMC, 125 µg/mL of AIG and IL-2: 17400 CPM

## anti-CD16 mAb 3G8 (antibody)
  IFN-γ secretion from PBMC, immobilized anti-CD16 mAb (10 µg/ml) + IL-2: 9.85 ng/mL
  TNF-α secretion from PBMC, immobilized anti-CD16 mAb (10 µg/ml) + IL-2: 3.32 ng/mL
  proliferative response of PBMC ([3H]thymidine), IL-2 and immobilized anti-CD16 mAb: 15500 CPM
  proliferative response of PBMC ([3H]thymidine), immobilized anti-CD16 mAb alone, no IL-2: 592 CPM
